Sequences and labels used below:
B1: Trastuzumab HCDR3 variant ATYGYGYYYFDY (Fab, V domains shown)
VH: EVQLVESGGGLVQPGGSLRLSCAASGFNIKDTYIHWVRQAPGKGLEWVARIYPTNGYTRYADSVKGRFTISADTSKNTAYLQMNSLRAEDTAVYYCATYGYGYYYFDYWGQGTLVTVSS
VL: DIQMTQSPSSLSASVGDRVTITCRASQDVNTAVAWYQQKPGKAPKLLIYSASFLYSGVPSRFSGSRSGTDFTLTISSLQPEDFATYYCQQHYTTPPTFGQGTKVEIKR
B2: Trastuzumab HCDR3 variant VRYGYGYYYFDY (Fab, V domains shown)
VH: B1 VH with A97V, T98R
VL: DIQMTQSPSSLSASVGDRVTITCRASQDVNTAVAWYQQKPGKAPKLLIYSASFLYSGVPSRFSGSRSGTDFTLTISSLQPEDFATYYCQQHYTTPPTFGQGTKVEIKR
B3: Trastuzumab HCDR3 variant STYARDYYHFGS (Fab, V domains shown)
VH: B1 VH with A97S, G100A, Y101R, G102D, Y105H, D107G, Y108S
VL: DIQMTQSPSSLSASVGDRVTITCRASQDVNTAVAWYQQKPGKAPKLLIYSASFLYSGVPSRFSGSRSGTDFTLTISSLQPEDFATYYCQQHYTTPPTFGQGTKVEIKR
B4: Trastuzumab HCDR3 variant TRYGGGYYYFDY (Fab, V domains shown)
VH: B1 VH with A97T, T98R, Y101G
VL: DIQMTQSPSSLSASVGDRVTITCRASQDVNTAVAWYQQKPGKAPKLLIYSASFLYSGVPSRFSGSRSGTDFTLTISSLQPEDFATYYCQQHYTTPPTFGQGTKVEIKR
B5: Trastuzumab HCDR3 variant ATYSFGAYYYVF (Fab, V domains shown)
VH: B1 VH with G100S, Y101F, Y103A, F106Y, D107V, Y108F
VL: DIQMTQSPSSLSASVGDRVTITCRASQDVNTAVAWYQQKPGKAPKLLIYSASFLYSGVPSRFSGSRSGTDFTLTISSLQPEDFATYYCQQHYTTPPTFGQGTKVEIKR
B6: Trastuzumab HCDR3 variant VRYGYGYYAMDY (Fab, V domains shown)
VH: B1 VH with A97V, T98R, Y105A, F106M
VL: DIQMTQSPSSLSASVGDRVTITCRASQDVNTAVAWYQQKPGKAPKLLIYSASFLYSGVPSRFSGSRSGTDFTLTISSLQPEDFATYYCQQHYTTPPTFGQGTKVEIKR
B7: Trastuzumab HCDR3 variant VRYGGTYYYFDY (Fab, V domains shown)
VH: B1 VH with A97V, T98R, Y101G, G102T
VL: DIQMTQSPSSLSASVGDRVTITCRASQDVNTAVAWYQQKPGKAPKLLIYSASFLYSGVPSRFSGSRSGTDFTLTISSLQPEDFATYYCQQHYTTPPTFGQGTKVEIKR
B8: Trastuzumab HCDR3 variant VRYGYGYYYMDY (Fab, V domains shown)
VH: B1 VH with A97V, T98R, F106M
VL: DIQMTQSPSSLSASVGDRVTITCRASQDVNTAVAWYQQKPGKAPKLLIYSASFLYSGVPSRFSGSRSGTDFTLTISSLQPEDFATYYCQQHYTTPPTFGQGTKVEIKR
B9: Trastuzumab HCDR3 variant AVYSPDFYYLGY (Fab, V domains shown)
VH: B1 VH with T98V, G100S, Y101P, G102D, Y103F, F106L, D107G
VL: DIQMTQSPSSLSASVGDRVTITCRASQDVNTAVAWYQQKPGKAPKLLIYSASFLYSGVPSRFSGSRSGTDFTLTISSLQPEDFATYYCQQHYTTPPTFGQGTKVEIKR
B10: Trastuzumab HCDR3 variant TRYGSYYYYFDY (Fab, V domains shown)
VH: B1 VH with A97T, T98R, Y101S, G102Y
VL: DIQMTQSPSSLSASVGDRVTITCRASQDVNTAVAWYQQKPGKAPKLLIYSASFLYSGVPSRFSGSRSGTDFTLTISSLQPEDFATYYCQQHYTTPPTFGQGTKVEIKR
B11: Trastuzumab HCDR3 variant VRWGGYYYYFDY (Fab, V domains shown)
VH: B1 VH with A97V, T98R, Y99W, Y101G, G102Y
VL: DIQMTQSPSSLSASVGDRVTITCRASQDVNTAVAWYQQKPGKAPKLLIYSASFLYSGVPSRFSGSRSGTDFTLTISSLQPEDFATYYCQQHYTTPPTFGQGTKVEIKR
B12: Trastuzumab HCDR3 variant TRFRSFFYNFDY (Fab, V domains shown)
VH: B1 VH with A97T, T98R, Y99F, G100R, Y101S, G102F, Y103F, Y105N
VL: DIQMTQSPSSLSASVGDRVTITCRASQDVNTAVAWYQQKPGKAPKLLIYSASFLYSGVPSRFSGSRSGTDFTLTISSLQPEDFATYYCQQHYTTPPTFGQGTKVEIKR
B13: Trastuzumab HCDR3 variant VTYGTTYYHFGS (Fab, V domains shown)
VH: B1 VH with A97V, Y101T, G102T, Y105H, D107G, Y108S
VL: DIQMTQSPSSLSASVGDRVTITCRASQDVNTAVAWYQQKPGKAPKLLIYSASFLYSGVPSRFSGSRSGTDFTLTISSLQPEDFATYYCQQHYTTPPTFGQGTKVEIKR
B14: Trastuzumab HCDR3 variant TRYGAPYFYFDY (Fab, V domains shown)
VH: B1 VH with A97T, T98R, Y101A, G102P, Y104F
VL: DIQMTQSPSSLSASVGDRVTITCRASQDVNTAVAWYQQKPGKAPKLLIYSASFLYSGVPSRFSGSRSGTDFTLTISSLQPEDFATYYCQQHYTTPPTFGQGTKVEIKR
B15: Trastuzumab HCDR3 variant TRYGYGYYYFDY (Fab, V domains shown)
VH: B1 VH with A97T, T98R
VL: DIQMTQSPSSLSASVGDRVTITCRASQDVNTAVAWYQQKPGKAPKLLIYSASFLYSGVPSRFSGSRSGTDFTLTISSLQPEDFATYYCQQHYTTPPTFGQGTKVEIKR
B16: Trastuzumab HCDR3 variant TRNSFGFYAMDY (Fab, V domains shown)
VH: B1 VH with A97T, T98R, Y99N, G100S, Y101F, Y103F, Y105A, F106M
VL: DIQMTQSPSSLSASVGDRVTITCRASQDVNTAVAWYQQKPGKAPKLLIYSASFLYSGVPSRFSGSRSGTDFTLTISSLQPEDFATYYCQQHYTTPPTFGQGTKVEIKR
B17: Trastuzumab HCDR3 variant VRYGYDYYWFDY (Fab, V domains shown)
VH: B1 VH with A97V, T98R, G102D, Y105W
VL: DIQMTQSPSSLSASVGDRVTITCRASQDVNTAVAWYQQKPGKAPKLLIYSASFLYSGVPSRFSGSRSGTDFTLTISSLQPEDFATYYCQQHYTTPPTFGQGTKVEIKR
B18: Trastuzumab HCDR3 variant ATYSPGAYYYGP (Fab, V domains shown)
VH: B1 VH with G100S, Y101P, Y103A, F106Y, D107G, Y108P
VL: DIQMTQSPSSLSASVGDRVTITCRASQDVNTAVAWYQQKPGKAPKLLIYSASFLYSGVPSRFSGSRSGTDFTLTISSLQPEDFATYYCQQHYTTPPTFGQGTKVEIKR
B19: Trastuzumab HCDR3 variant VRYGGGYYYFDV (Fab, V domains shown)
VH: B1 VH with A97V, T98R, Y101G, Y108V
VL: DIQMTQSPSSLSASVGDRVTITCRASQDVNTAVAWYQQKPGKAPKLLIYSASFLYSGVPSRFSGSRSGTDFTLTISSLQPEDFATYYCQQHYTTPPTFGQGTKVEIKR
B20: Trastuzumab HCDR3 variant VRWRSDFYYFDY (Fab, V domains shown)
VH: B1 VH with A97V, T98R, Y99W, G100R, Y101S, G102D, Y103F
VL: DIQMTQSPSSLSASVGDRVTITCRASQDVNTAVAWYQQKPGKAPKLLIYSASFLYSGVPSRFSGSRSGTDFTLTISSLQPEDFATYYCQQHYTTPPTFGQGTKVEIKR
B21: Trastuzumab HCDR3 variant TRYGYGYYYMDY (Fab, V domains shown)
VH: B1 VH with A97T, T98R, F106M
VL: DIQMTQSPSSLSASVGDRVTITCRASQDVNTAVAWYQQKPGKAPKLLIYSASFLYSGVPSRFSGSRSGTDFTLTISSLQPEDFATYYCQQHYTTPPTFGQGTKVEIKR
B22: Trastuzumab HCDR3 variant AVSADIMYGVSV (Fab, V domains shown)
VH: B1 VH with T98V, Y99S, G100A, Y101D, G102I, Y103M, Y105G, F106V, D107S, Y108V
VL: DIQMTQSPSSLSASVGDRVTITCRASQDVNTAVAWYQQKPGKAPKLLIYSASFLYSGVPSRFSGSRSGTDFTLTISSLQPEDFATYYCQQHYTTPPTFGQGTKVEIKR
B23: Trastuzumab HCDR3 variant TRYYYGLYYFDY (Fab, V domains shown)
VH: B1 VH with A97T, T98R, G100Y, Y103L
VL: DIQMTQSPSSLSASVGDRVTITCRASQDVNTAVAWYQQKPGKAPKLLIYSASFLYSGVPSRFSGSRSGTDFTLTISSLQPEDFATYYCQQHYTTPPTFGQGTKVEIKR
B24: Trastuzumab HCDR3 variant VRYGGDYYYFDY (Fab, V domains shown)
VH: B1 VH with A97V, T98R, Y101G, G102D
VL: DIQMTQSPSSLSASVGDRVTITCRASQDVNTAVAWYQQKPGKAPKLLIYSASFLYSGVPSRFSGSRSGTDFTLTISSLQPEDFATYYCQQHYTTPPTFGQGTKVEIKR
B25: Trastuzumab HCDR3 variant TRFLIGSYYYDY (Fab, V domains shown)
VH: B1 VH with A97T, T98R, Y99F, G100L, Y101I, Y103S, F106Y
VL: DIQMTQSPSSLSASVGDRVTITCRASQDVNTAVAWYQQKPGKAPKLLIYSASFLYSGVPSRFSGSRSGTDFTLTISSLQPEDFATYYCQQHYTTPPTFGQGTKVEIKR
B26: Trastuzumab HCDR3 variant ARYGGYGGYYFDY (Fab, V domains shown)
VH: EVQLVESGGGLVQPGGSLRLSCAASGFNIKDTYIHWVRQAPGKGLEWVARIYPTNGYTRYADSVKGRFTISADTSKNTAYLQMNSLRAEDTAVYYCARYGGYGGYYFDYWGQGTLVTVSS
VL: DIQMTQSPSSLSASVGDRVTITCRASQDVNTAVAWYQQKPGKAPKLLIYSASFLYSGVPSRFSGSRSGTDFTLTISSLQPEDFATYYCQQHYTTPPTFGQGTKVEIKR
B27: Trastuzumab HCDR3 variant ARHFGVASYSFDY (Fab, V domains shown)
VH: B26 VH with Y99H, G100F, Y102V, G103A, G104S, Y106S
VL: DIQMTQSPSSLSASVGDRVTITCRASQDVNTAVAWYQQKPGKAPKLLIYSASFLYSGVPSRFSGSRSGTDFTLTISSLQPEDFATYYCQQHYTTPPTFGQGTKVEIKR
B28: Trastuzumab HCDR3 variant AKYAYYGDFWGSV (Fab, V domains shown)
VH: B26 VH with R98K, G100A, G101Y, G104D, Y105F, Y106W, F107G, D108S, Y109V
VL: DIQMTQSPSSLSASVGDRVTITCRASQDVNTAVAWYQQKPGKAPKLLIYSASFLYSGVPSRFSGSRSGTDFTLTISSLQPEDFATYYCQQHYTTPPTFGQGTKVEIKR
B29: Trastuzumab HCDR3 variant ARWGYDYYYAMDY (Fab, V domains shown)
VH: B26 VH with Y99W, G101Y, Y102D, G103Y, G104Y, Y106A, F107M
VL: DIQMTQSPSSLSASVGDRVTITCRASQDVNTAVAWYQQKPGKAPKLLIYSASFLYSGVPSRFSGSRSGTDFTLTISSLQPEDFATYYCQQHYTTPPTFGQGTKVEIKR
B30: Trastuzumab HCDR3 variant ARWGSIGYYAFDH (Fab, V domains shown)
VH: B26 VH with Y99W, G101S, Y102I, G104Y, Y106A, Y109H
VL: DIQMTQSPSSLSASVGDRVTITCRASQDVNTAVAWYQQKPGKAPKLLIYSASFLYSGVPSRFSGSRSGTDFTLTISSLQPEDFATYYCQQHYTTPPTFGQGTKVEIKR
B31: Trastuzumab HCDR3 variant ARENDGSPGSFEY (Fab, V domains shown)
VH: B26 VH with Y99E, G100N, G101D, Y102G, G103S, G104P, Y105G, Y106S, D108E
VL: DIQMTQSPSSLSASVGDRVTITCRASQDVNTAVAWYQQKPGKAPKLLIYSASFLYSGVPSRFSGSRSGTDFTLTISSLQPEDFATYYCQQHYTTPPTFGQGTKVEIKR
B32: Trastuzumab HCDR3 variant ARWGYDYYYYFDV (Fab, V domains shown)
VH: B26 VH with Y99W, G101Y, Y102D, G103Y, G104Y, Y109V
VL: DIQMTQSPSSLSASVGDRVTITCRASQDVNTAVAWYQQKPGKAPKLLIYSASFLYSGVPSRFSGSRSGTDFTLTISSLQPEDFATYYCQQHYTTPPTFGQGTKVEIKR
B33: Trastuzumab HCDR3 variant AKFAYYGPYHFDP (Fab, V domains shown)
VH: B26 VH with R98K, Y99F, G100A, G101Y, G104P, Y106H, Y109P
VL: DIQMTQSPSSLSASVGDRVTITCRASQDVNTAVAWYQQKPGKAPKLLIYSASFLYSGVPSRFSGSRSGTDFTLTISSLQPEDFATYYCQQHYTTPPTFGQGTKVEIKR
B34: Trastuzumab HCDR3 variant ARWGGPGYYAFVW (Fab, V domains shown)
VH: B26 VH with Y99W, Y102P, G104Y, Y106A, D108V, Y109W
VL: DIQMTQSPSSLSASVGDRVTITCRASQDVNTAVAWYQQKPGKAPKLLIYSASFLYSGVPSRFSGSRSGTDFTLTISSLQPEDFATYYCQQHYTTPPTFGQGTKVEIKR
B35: Trastuzumab HCDR3 variant AATYGGLGDMSSI (Fab, V domains shown)
VH: B26 VH with R98A, Y99T, G100Y, Y102G, G103L, Y105D, Y106M, F107S, D108S, Y109I
VL: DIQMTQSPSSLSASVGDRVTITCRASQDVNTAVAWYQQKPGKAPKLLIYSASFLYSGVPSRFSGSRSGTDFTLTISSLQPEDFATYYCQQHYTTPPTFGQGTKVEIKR
B36: Trastuzumab HCDR3 variant AKYGGVGYYAMDY (Fab, V domains shown)
VH: B26 VH with R98K, Y102V, G104Y, Y106A, F107M
VL: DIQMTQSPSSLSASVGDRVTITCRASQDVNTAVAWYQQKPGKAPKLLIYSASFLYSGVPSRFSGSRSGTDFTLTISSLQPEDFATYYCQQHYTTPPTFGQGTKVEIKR
B37: Trastuzumab HCDR3 variant ARWGGYGYYYMDV (Fab, V domains shown)
VH: B26 VH with Y99W, G104Y, F107M, Y109V
VL: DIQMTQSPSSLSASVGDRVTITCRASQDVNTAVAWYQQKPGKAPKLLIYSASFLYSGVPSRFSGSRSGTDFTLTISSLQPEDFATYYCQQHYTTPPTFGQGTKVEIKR
B38: Trastuzumab HCDR3 variant AKYINAYSYAFFD (Fab, V domains shown)
VH: B26 VH with R98K, G100I, G101N, Y102A, G103Y, G104S, Y106A, D108F, Y109D
VL: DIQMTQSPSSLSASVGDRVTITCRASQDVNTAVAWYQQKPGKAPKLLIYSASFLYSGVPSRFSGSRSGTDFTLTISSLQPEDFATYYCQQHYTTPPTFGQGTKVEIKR
B39: Trastuzumab HCDR3 variant AKYGATGWYYFDY (Fab, V domains shown)
VH: B26 VH with R98K, G101A, Y102T, G104W
VL: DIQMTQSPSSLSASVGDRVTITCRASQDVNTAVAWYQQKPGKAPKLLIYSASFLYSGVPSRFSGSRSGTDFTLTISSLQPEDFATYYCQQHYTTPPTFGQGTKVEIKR
B40: Trastuzumab HCDR3 variant ARWGEFGPYYFDY (Fab, V domains shown)
VH: B26 VH with Y99W, G101E, Y102F, G104P
VL: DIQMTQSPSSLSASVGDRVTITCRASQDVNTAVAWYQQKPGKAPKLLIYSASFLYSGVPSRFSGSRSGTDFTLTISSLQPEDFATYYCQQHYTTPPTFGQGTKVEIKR
B41: Trastuzumab HCDR3 variant ARWDSGGPYYFDS (Fab, V domains shown)
VH: B26 VH with Y99W, G100D, G101S, Y102G, G104P, Y109S
VL: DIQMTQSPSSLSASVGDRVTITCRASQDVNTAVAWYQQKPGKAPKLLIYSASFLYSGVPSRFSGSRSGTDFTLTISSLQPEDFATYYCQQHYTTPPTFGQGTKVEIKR
B42: Trastuzumab HCDR3 variant ANDIYIQGYDLNR (Fab, V domains shown)
VH: B26 VH with R98N, Y99D, G100I, G101Y, Y102I, G103Q, Y106D, F107L, D108N, Y109R
VL: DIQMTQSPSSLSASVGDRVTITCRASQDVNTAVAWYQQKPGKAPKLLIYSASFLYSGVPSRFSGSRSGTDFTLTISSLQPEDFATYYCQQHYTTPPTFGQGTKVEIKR
B43: Trastuzumab HCDR3 variant ARNYYDLYYYFDY (Fab, V domains shown)
VH: B26 VH with Y99N, G100Y, G101Y, Y102D, G103L, G104Y
VL: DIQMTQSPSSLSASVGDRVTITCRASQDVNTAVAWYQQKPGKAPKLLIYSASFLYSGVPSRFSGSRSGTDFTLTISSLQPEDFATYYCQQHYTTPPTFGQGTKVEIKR
B44: Trastuzumab HCDR3 variant AKYLGQEAYAYFS (Fab, V domains shown)
VH: B26 VH with R98K, G100L, Y102Q, G103E, G104A, Y106A, F107Y, D108F, Y109S
VL: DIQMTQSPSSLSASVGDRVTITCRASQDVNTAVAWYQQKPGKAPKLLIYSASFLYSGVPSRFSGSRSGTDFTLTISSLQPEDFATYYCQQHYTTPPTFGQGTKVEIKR

Residue numbers refer to the chain shown, from its start. “And” between values parts separate entries of the source, which are not always exact repeats. Identical values can stand only once.

The text below walks through data of patent publication US20250218531A1 (ABSCI, published 2025).

As usually defined, the Kd is the constant that tells how readily two partners part at equilibrium.

The assay concerns the target T1, HER2 (human epidermal growth factor receptor 2) (human, UniProt P04626 23-629).
T1 construct: also called Antigen: HER2
As to the kind of experiment: SPR. A general note: SPR reads the build-up and loss of mass on a sensor chip optically.
On to B1, for which binding was put at a Kd of 15.5 nM and the “log(KD (M))” value is -7.81.

With B2, the Kd came to 2.77 nM and the “log(KD (M))” value is -8.56.

As for B3, binding was characterised by a dissociation constant (Kd) of 12.6 nM and the “log(KD (M))” value was -7.9.

As to B4, binding was put at a Kd of 3.59 nM and the “log(KD (M))” value was -8.45.

As for B5, the Kd is 4.73 nM and the “log(KD (M))” value is -8.33.

As to B6, the affinity, expressed as Kd, was 10.7 nM and the “log(KD (M))” value is -7.97.

For B7, binding was put at a Kd of 15.4 nM and the “log(KD (M))” value was -7.81.

For B8, binding was characterised by a dissociation constant (Kd) of 5.48 nM and the “log(KD (M))” value is -8.26.

B9: binding was characterised by a dissociation constant (Kd) of 2.06 nM and the “log(KD (M))” value was -8.69.

Consider B10, for which the equilibrium dissociation constant (Kd) worked out at 3.18 nM and the “log(KD (M))” value was -8.5.

For the molecule B11, binding was put at a Kd of 6.35 nM and the “log(KD (M))” value was -8.2.

B12: the Kd was found to be 5.4 nM and the “log(KD (M))” value was -8.27.

As to B13, the equilibrium dissociation constant (Kd) was 24.1 nM and the “log(KD (M))” value is -7.62.

As to B14, the Kd came out at 18 nM and the “log(KD (M))” value is -7.75.

In the case of B15, the affinity, expressed as Kd, was 2.73 nM and the “log(KD (M))” value is -8.56.

For the molecule B16, the Kd is 19 nM and the “log(KD (M))” value was -7.72.

Regarding B17, the affinity, expressed as Kd, was 10.4 nM and the “log(KD (M))” value is -7.98.

Regarding B18, the Kd is 17.3 nM and 17.2 nM; the “log(KD (M))” value is -7.76.

For B19, binding was characterised by a dissociation constant (Kd) of 3.96 nM and the “log(KD (M))” value was -8.4.

For B20, the Kd amounted to 4.95 nM and the “log(KD (M))” value was -8.31.

In the case of B21, binding was characterised by a dissociation constant (Kd) of 5.25 nM and the “log(KD (M))” value is -8.28.

As for B22, the Kd came to 22.9 nM and the “log(KD (M))” value is -7.64.

In the case of B23, the Kd came to 3.02 nM and the “log(KD (M))” value was -8.52.

For the molecule B24, the dissociation constant Kd came to 21.9 nM and the “log(KD (M))” value is -7.66.

Take B25: the Kd worked out at 11.6 nM and the “log(KD (M))” value is -7.93.

With B26, the equilibrium dissociation constant (Kd) is 14 nM and the “log(KD (M))” value was -7.85.

Regarding B27, binding was put at a Kd of 13.9 nM and the “log(KD (M))” value was -7.86.

B28: the Kd stood at 17.5 nM and the “log(KD (M))” value was -7.76.

On to B29, for which the Kd worked out at 19.4 nM and the “log(KD (M))” value is -7.71.

B30: the Kd stood at 20.5 nM and the “log(KD (M))” value was -7.69.

With B31, the Kd stood at 23.1 nM and the “log(KD (M))” value is -7.64.

Regarding B32, the Kd was 26.7 nM and the “log(KD (M))” value is -7.57.

On to B33, for which the affinity, expressed as Kd, was 10.1 nM and the “log(KD (M))” value is -7.99.

For B34, binding was put at a Kd of 8.08 nM and the “log(KD (M))” value is -8.09.

Turning to B35, the dissociation constant Kd was 27 nM and the “log(KD (M))” value is -7.57.

Turning to B36, the affinity, expressed as Kd, was 25.2 nM and the “log(KD (M))” value was -7.6.

Consider B37, for which binding was put at a Kd of 8.78 nM and the “log(KD (M))” value was -8.06.

Turning to B38, the Kd was 17 nM and 16.9 nM; the “log(KD (M))” value is -7.77.

B39: binding was characterised by a dissociation constant (Kd) of 14.1 nM and the “log(KD (M))” value is -7.85.

With B40, binding was characterised by a dissociation constant (Kd) of 9.24 nM and the “log(KD (M))” value was -8.03.

On to B41, for which the affinity, expressed as Kd, was 15.4 nM and the “log(KD (M))” value is -7.81.

On to B42, for which binding was characterised by a dissociation constant (Kd) of 3.99 nM and the “log(KD (M))” value was -8.4.

Regarding B43, binding was characterised by a dissociation constant (Kd) of 8.41 nM and the “log(KD (M))” value was -8.08.

On to B44, for which the Kd is 14.9 nM and the “log(KD (M))” value was -7.83.
